From the supplement of paper PMC5998384 come the findings set out here.

The test system of series [1] is HeLa Kyoto. Briefly: solubility in G1/S (NP-40 vs SDS abundance) (log2 ratio); higher = more soluble. The note with it: cell cycle stage: G1/S.
In series [2] the test system is HeLa Kyoto. Briefly: melting temperature (median over replicates), in situ; higher = more thermally stable.
Series [3] concerns HeLa Kyoto. Briefly: solubility change mitosis vs G1/S (difference of NP-40 vs SDS log2 ratios) (log2 ratio difference); higher = more soluble in mitosis.
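Wherever melting temperature (median over replicates), in situ is given: HeLa Kyoto cells synchronized by double thymidine or nocodazole block, proteins quantified by TMT10plex mass spectrometry, three independent biological replicates.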
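Wherever solubility change mitosis vs G1/S (difference of NP-40 vs SDS log2 ratios) is given: synchronized HeLa Kyoto cells (double thymidine block for G1/S, nocodazole release for mitosis), protein amounts in NP-40 versus SDS lysates quantified by mass spectrometry, three biological replicates.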
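Wherever solubility in G1/S (NP-40 vs SDS abundance) is given: HeLa Kyoto cells arrested at G1/S by double thymidine block, proteins quantified by TMT10plex mass spectrometry in mild NP-40 versus SDS extracts, three biological replicates.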

For the sequence “MELFQAKDHYILQQGERALWCSRRDGGLQLRPATDLLLAWNPICLGLVEGVIGKIQLHSDLPWWLILIRQKALVGKLPGDHEVCKVTKIAVLSLSEMEPQDLELELCKKHHFGINKPEKIIPSPDDSKFLLKTFTHIKSNVSAPNKKKVKESKEKEKLERRLLEELLKMFMDSESFYYSLTYDLTNSVQRQSTGERDGRPLWQKVDDRFFWNKYMIQDLTEIGTPDVDFWIIPMIQGFVQIEELVVNYTESSDDEKSSPETPPQESTCVDDIHPRFLVALISRRSRHRAGMRYKRRGVDKNGNVANYVETEQLIHVHNHTLSFVQTRGSVPVFWSQVGYRYNPRPRLDRSEKETVAYFCAHFEEQLNIYKKQVIINLVDQAGREKIIGDAYLKQVLLFNNSHLTYVSFDFHEHCRGMKFENVQTLTDAIYDIILDMKWCWVDEAGVICKQEGIFRVNCMDCLDRTNVVQAAIARVVMEQQLKKLGVMPPEQPLPVKCNRIYQIMWANNGDSISRQYAGTAALKGDFTRTGERKLAGVMKDGVNSANRYYLNRFKDAYRQAVIDLMQGIPVTEDLYSIFTKEKEHEALHKENQRSHQELISQLLQSYMKLLLPDDEKFHGGWALIDCDPSLIDATHRDVDVLLLLSNSAYYVAYYDDEVDKVNQYQRLSLENLEKIEIGPEPTLFGKPKFSCMRLHYRYKEASGYFHTLRAVMRNPEEDGKDTLQCIAEMLQITKQAMGSDLPIIEKKLERKSSKPHEDIIGIRSQNQGSLAQGKNFLMSKFSSLNQKVKQTKSNVNIGNLRKLGNFTKPEMKVNFLKPNLKVNLWKSDSSLETMENTGVMDKVQAESDGDMSSDNDSYHSDEFLTNSKSDEDRQLANSLESVGPIDYVLPSCGIIASAPRLGSRSQSLSSTDSSVHAPSEITVAHGSGLGKGQESPLKKSPSAGDVHILTGFAKPMDIYCHRFVQDAQNKVTHLSETRSVSQQASQERNQMTNQVSNETQSESTEQTPSRPSQLDVSLSATGPQFLSVEPAHSVASQKTPTSASSMLELETGLHVTPSPSESSSSRAVSPFAKIRSSMVQVASITQAGLTHGINFAVSKVQKSPPEPEIINQVQQNELKKMFIQCQTRIIQI [INPP5F]”, the “solubility in G1/S (log2)” value in the series on HeLa Kyoto [1] is -0.015. Moreover, the melting temperature is 51.3 °C with HeLa Kyoto [2] (cell cycle stage: G1/S) and 49.3 °C with HeLa Kyoto [2] (cell cycle stage: mitosis). Further, the “solubility change mitosis (log2)” value with HeLa Kyoto [3] was -0.171.
Turning to “MENFRKVRSEEAPAGCGAEGGGPGSGPFADLAPGAVHMRVKEGSKIRNLMAFATASMAQPATRAIVFSGCGRATTKTVTCAEILKRRLAGLHQVTRLRYRSVREVWQSLPPGPTQGQTPGEPAASLSVLKNVPGLAILLSKDALDPRQPGYQPPNPHPGPSSPPAAPASKRSLGEPAAGEGSAKRSQPEPGVADEDQTA [RPP25]”, in the series with HeLa Kyoto [1], the “solubility in G1/S (log2)” value was 0.179. Moreover, the melting temperature in the series with HeLa Kyoto [2] (cell cycle stage: G1/S) was determined as 54.5 °C; in the series with HeLa Kyoto [2] (cell cycle stage: mitosis), 53.7 °C. Moreover, the “solubility change mitosis (log2)” value in the series on HeLa Kyoto [3] turned out to be 0.258.
As for “MEPAGPCGFCPAGEVQPARYTCPRCNAPYCSLRCYRTHGTCAENFYRDQVLGELRGCSAPPSRLASALRRLRQQRETEDEPGEAGLSSGPAPGGLSGLWERLAPGEKAAFERLLSRGEAGRLLPPWRPWWWNRGAGPQLLEELDNAPGSDAAELELAPARTPPDSVKDASAAEPAAAERVLGDVPGACTPVVPTRIPAIVSLSRGPVSPLVRFQLPNVLFAYAHTLALYHGGDDALLSDFCATLLGVSGALGAQQVFASAEEALQAAAHVLEAGEHPPGPLGTRGAMHEVARILLGEGPTNQKGYTLAALGDLAQTLGRARKQAVAREERDHLYRARKKCQFLLAWTNENEAALTPLALDCARAHQAHAVVAEEVAALTGELERLWGGPVPPAPRTLIEELPS [ZNHIT2]”, in the series on HeLa Kyoto [1], the “solubility in G1/S (log2)” value amounted to 0.384. Besides, the melting temperature with HeLa Kyoto [2] (cell cycle stage: G1/S) came to 48.9 °C; in the series with HeLa Kyoto [2] (cell cycle stage: mitosis), 49.4 °C. For the same sequence, in the series with HeLa Kyoto [3], the “solubility change mitosis (log2)” value came to 0.141.
In the same order, the values of “MERFVVTAPPARNRSKTALYVTPLDRVTEFGGELHEDGGKLFCTSCNVVLNHVRKSAISDHLKSKTHTKRKAEFEEQNVRKKQRPLTASLQCNSTAQTEKVSVIQDFVKMCLEANIPLEKADHPAVRAFLSRHVKNGGSIPKSDQLRRAYLPDGYENENQLLNSQDC [CGGBP1]” are 0.332, 51.7 °C, 51.8 °C and 0.0407.
For “MFPLTEENKHVAQLLLNTGTCPRCIFRFCGVDFHAPYKLPYKELLNELQKFLETEKDELILEVMNPPPKKIRLQELEDSIDNLSQNGEGRISVSHVGSTASKNSNLNVCNVCLGILQEFCEKDFIKKVCQKVEASGFEFTSLVFSVSFPPQLSVREHAAWLLVKQEMGKQSLSLGRDDIVQLKEAYKWITHPLFSEELGVPIDGKSLFEVSVVFAHPETVEDCHFLAAICPDCFKPAKNKQSVFTRMAVMKALNKIKEEDFLKQFPCPPNSPKAVCAVLEIECAHGAVFVAGRYNKYSRNLPQTPWIIDGERKLESSVEELISDHLLAVFKAESFNFSSSGREDVDVRTLGNGRPFAIELVNPHRVHFTSQEIKELQQKINNSSNKIQVRDLQLVTREAIGHMKEGEEEKTKTYSALIWTNKAIQKKDIEFLNDIKDLKIDQKTPLRVLHRRPLAVRARVIHFMETQYVDEHHFRLHLKTQAGTYIKEFVHGDFGRTKPNIGSLMNVTADILELDVESVDVDWPPALDD [PUS10]”, in that order: 0.0782, 50.8 °C, 51.8 °C and -0.271.
For “MGEEANDDKKPTTKFELERETELRFEVEASQSVQLELLTGMAEIFGTELTRNKKFTFDAGAKVAVFTWHGCSVQLSGRTEVAYVSKDTPMLLYLNTHTALEQMRRQAEKEEERGPRVMVVGPTDVGKSTVCRLLLNYAVRLGRRPTYVELDVGQGSVSIPGTMGALYIERPADVEEGFSIQAPLVYHFGSTTPGTNIKLYNKITSRLADVFNQRCEVNRRASVSGCVINTCGWVKGSGYQALVHAASAFEVDVVVVLDQERLYNELKRDLPHFVRTVLLPKSGGVVERSKDFRRECRDERIREYFYGFRGCFYPHAFNVKFSDVKIYKVGAPTIPDSCLPLGMSQEDNQLKLVPVTPGRDMVHHLLSVSTAEGTEENLSETSVAGFIVVTSVDLEHQVFTVLSPAPRPLPKNFLLIMDIRFMDLK [CLP1]”, in that order: -0.181, 46.9 °C, 48.8 °C and -0.0019.
